Measured values reported in the supplement of paper PMC9732359.
± gives the uncertainty stated by the source.

Assay: protein stability index of a GFP-peptide fusion (yeast GPS) (PSI 1-4); higher = more stable; sorted into four equal gates, so the index is relative within each strain
Details: san1∆
In short: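 Tiled yeast protein peptides of 17 residues were each joined downstream of GFP, on plasmids that also express Cherry. The pooled library was maintained in yeast, and mid-log cultures in leucine-free medium were sorted into four equal gates on the GFP/Cherry ratio. Plasmids from every gate were amplified by PCR and sequenced on Illumina, with barcodes linking reads to strains. The protein stability index of a peptide is its gate-number-weighted read frequency summed over the gates.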

**Q.** Which protein stability index does the source give for SNGFNNVTFGSKKDPRI [YMR153W/NUP53] here?
**A.** 2.89 ± 0.045

Same assay, conditions: ubr1∆

**Q.** With SEVQRTMLELLNQLDGF [RPT6] as the sequence, how does the protein stability index read?
**A.** 2.51 ± 0.07

**Q.** Which protein stability index does the source give for SEYDRGVSTFSPEGRLF [PUP2] here?
**A.** 3.31 ± 0.065

**Q.** For SFDEWFNTPFANTGGQD [SNF2], which protein stability index is on record?
**A.** 3.15 ± 0.15

**Q.** With SFFNISPDAPKEIMDKI [SIN4] as the sequence, how does the protein stability index read?
**A.** 3.29 ± 0.1

**Q.** Which protein stability index does the source give for SFKLCTLLIAIRGSNRD [YML103C/NUP188] here?
**A.** 2.41 ± 0.046

**Q.** Which protein stability index does the source give for SFLDPLNYGNICEPKET [YJL039C/NUP192] here?
**A.** 2.66 ± 0.093

**Q.** Which protein stability index does the source give for SFQKIPLSRINENENFG [YML103C/NUP188] here?
**A.** 3.24 ± 0.1

**Q.** Which protein stability index does the source give for SFTDILKSAIRDEIAKN [RPN12] here?
**A.** 2.89 ± 0.065

**Q.** With SGEEKGKKVTGFKDEVL [RPS1A] as the sequence, how does the protein stability index read?
**A.** 1.61 ± 0.14

**Q.** For SGKSNILDAICFVLGIA [SMC2], which protein stability index is on record?
**A.** 1.82 ± 0.066

**Q.** Which protein stability index does the source give for SGKSNTSNDASNKKETK [ITC1] here?
**A.** 3.18 ± 0.06

**Q.** For SGLNRAISTGNWSLKRF [RET1], which protein stability index is on record?
**A.** 2.41 ± 0.054

**Q.** For SGNGSNPNTNTNSNNTP [PGD1], which protein stability index is on record?
**A.** 2.87 ± 0.041

**Q.** Which protein stability index does the source give for SGPFKVNGVPLRRVNAR [RPL6A] here?
**A.** 2.77 ± 0.075

**Q.** For SGQKTNRQVMHKMGVER [SIR3], which protein stability index is on record?
**A.** 3.27 ± 0.22

**Q.** For SGTAATGAASNQSSFNF [YOR098C/NUP1], which protein stability index is on record?
**A.** 3.07 ± 0.053

**Q.** Which protein stability index does the source give for SGTTNFMRNGLLEGLNE [UBP6] here?
**A.** 3.45 ± 0.23

**Q.** For SHFSLDQFITSLKCTDP [ITC1], which protein stability index is on record?
**A.** 2.12 ± 0.1

**Q.** With SHISASASPHLAPNMQL [SNF2] as the sequence, how does the protein stability index read?
**A.** 3.1 ± 0.032

**Q.** Which protein stability index does the source give for SHNENKMDFSSKEGQYK [YIL149C/MLP2] here?
**A.** 3.28 ± 0.064

**Q.** With SHNFQNAIFQMESEEVP [PCI8] as the sequence, how does the protein stability index read?
**A.** 3.07 ± 0.05

**Q.** For SHTGLIRKYGLNICRQC [RPS29A], which protein stability index is on record?
**A.** 1.89 ± 0.053

**Q.** Which protein stability index does the source give for SIDNDFSEEKAEEFDFN [YAR002W/NUP60] here?
**A.** 3.12 ± 0.1

**Q.** With SIIKAKLPLLNESLIPL [YML103C/NUP188] as the sequence, how does the protein stability index read?
**A.** 1.99 ± 0.05

**Q.** For SILSFVDKELLEPGCSV [RPT2], which protein stability index is on record?
**A.** 3.01 ± 0.066

**Q.** For SINATALAFGYVKSLHK [SIN4], which protein stability index is on record?
**A.** 3.08 ± 0.08

**Q.** Which protein stability index does the source give for SIPMGGQSINDSLKKLL [ARP9] here?
**A.** 2.61 ± 0.056

**Q.** Which protein stability index does the source give for SISTYKDILNLASEVGD [ECM29] here?
**A.** 2.77 ± 0.054

**Q.** For SITTGNDNENIVNNDLP [MED2], which protein stability index is on record?
**A.** 2.87 ± 0.05

**Q.** For SKCLNLISDSNINNSSV [SWI3], which protein stability index is on record?
**A.** 2.41 ± 0.039

**Q.** Which protein stability index does the source give for SKFHFSWNESEDTLSGY [PRP28] here?
**A.** 3.47 ± 0.058

**Q.** With SKIQEIESIRSCKDSQL [YIL149C/MLP2] as the sequence, how does the protein stability index read?
**A.** 2.79 ± 0.047

**Q.** With SKKLDVTVEQLRSIYHQ [NSL1] as the sequence, how does the protein stability index read?
**A.** 2.08 ± 0.057

**Q.** Which protein stability index does the source give for SKKVTSGVPRLKEILNV [RPO21] here?
**A.** 1.1 ± 0.083

**Q.** For SKLLQTTLKLSPSPILL [NUT1], which protein stability index is on record?
**A.** 1.5 ± 0.046

**Q.** For SKNCYLSEATESDLYKL [RPB2], which protein stability index is on record?
**A.** 2.75 ± 0.093

**Q.** With SKNFNVILASSLNEVGT [YML103C/NUP188] as the sequence, how does the protein stability index read?
**A.** 2.39 ± 0.036

**Q.** With SKNLGEINTALNTLLVT [SWI1] as the sequence, how does the protein stability index read?
**A.** 1.46 ± 0.066

**Q.** Which protein stability index does the source give for SKNRIIVEADEKKGIVQ [RET1] here?
**A.** 1.59 ± 0.077

**Q.** With SKNSPAEDDVIIPQDIL [YJR042W/NUP85] as the sequence, how does the protein stability index read?
**A.** 3.36 ± 0.19

**Q.** With SKQIFTHPKDTFYITRE [ARP9] as the sequence, how does the protein stability index read?
**A.** 3.23 ± 0.039

**Q.** Which protein stability index does the source give for SKRGNDKKHFNNKNKRV [RPC53] here?
**A.** 2.05 ± 0.09

**Q.** For SKSESDSQIVTPGELVT [RRP4], which protein stability index is on record?
**A.** 2.83 ± 0.066

**Q.** With SKSTSMKLSMPPEVTSS [POP1] as the sequence, how does the protein stability index read?
**A.** 2.54 ± 0.035

**Q.** For SKSYTPRKLVLSSGENR [SMC4], which protein stability index is on record?
**A.** 1.7 ± 0.037

**Q.** With SKTENVRRLEAQRNALN [RPT6] as the sequence, how does the protein stability index read?
**A.** 2.88 ± 0.074

**Q.** With SKTGIIAYSDSQSSNAN [SIN4] as the sequence, how does the protein stability index read?
**A.** 2.53 ± 0.058

**Q.** Which protein stability index does the source give for SKTGSVDTLHNKEGTLE [SSN2] here?
**A.** 3.4 ± 0.14

**Q.** For SKTLSLIQSYSLLDKPD [FAS1], which protein stability index is on record?
**A.** 2.14 ± 0.074

**Q.** For SLDTLELESITESITHD [NUT1], which protein stability index is on record?
**A.** 2.34 ± 0.035

**Q.** With SLEQRTLNPDLFLYKEL [RPC82] as the sequence, how does the protein stability index read?
**A.** 3.74 ± 0.27

**Q.** Which protein stability index does the source give for SLINSHLKILASSNFPF [RPC82] here?
**A.** 2.02 ± 0.042

**Q.** For SLISTRNDSTVNDSVIS [BRN1], which protein stability index is on record?
**A.** 2.67 ± 0.059

**Q.** With SLKGYKIENSVQIGAEI [CSI1] as the sequence, how does the protein stability index read?
**A.** 3.17 ± 0.17

**Q.** Which protein stability index does the source give for SLLEKDIDAVNGAVGKR [ISW2] here?
**A.** 3.31 ± 0.064

**Q.** Which protein stability index does the source give for SLLLSSSFKEDCLSFAP [SSN2] here?
**A.** 3.2 ± 0.19

**Q.** With SLRTPIAPKITPKVVRS [SEC65] as the sequence, how does the protein stability index read?
**A.** 3.17 ± 0.059

**Q.** Which protein stability index does the source give for SLSFGSGSAGANPAGAS [YJL041W/NSP1] here?
**A.** 3.1 ± 0.085

**Q.** With SLSRDFVMKTRRRKGIS [SNU114] as the sequence, how does the protein stability index read?
**A.** 2.77 ± 0.22

**Q.** For SLTISLYASDYASYFPY [RPN7], which protein stability index is on record?
**A.** 1.67 ± 0.028

**Q.** For SLVFNRKLAVERAGHLL [PRE5], which protein stability index is on record?
**A.** 1.71 ± 0.21

**Q.** Which protein stability index does the source give for SLVKYPELLDSLAILGM [SWI1] here?
**A.** 2.16 ± 0.051

**Q.** With SLVSTQSSSSTRSHEYG [REC8] as the sequence, how does the protein stability index read?
**A.** 3.19 ± 0.12

**Q.** For SMATPTHSDSHEDMKRR [ROX3], which protein stability index is on record?
**A.** 2.73 ± 0.04

**Q.** For SMENTPKVPVSAAATPS [GAL11], which protein stability index is on record?
**A.** 1.78 ± 0.036

**Q.** Which protein stability index does the source give for SMENYHLLIKIIRQLSE [SRB8] here?
**A.** 1.63 ± 0.046

**Q.** Which protein stability index does the source give for SMKDRAQHAVILDQEKY [RPS25A] here?
**A.** 2.23 ± 0.081

**Q.** With SMRTIMKANPALYVLRE [PRP8] as the sequence, how does the protein stability index read?
**A.** 1.37 ± 0.28

**Q.** With SNADTNQNSDMKKKLEL [SRB8] as the sequence, how does the protein stability index read?
**A.** 3.31 ± 0.17

**Q.** For SNAFYSVLRDTLVAQNL [SMC4], which protein stability index is on record?
**A.** 2.13 ± 0.033

**Q.** Which protein stability index does the source give for SNASRRKLINYTKKHLS [RPN4] here?
**A.** 1.34 ± 0.042

**Q.** Which protein stability index does the source give for SNDKFVHVQLLINLKIS [SRB8] here?
**A.** 1.61 ± 0.034

**Q.** With SNEFVPNTSDNNNNSNN [SWI1] as the sequence, how does the protein stability index read?
**A.** 2.88 ± 0.066

**Q.** For SNGFNNVTFGSKKDPRI [YMR153W/NUP53], which protein stability index is on record?
**A.** 2.87 ± 0.046
